Experimental data: the RNAGym collection of RNA variant scans (doi:10.7554/elife.90254)

B1: LINE1-full (parent)
chain: UACGUAGGUGGUUUUCCCCUGAUAGUGCUAAGGGGGCCUGGAAGUUUGGACUGGGCAGAGCUCAACACAGCGUGGCAAAGUGGCUGUGGCUAGACUGCCUCUCUGGAUUCCUCGUCACUCAGCAGGGCAUCUCUGAGAGAAAUGCC

Variants of: B1
Assay: self-cleavage, relative activity (ratio to wild type); higher = more cleavage; in vitro, sequencing; the parent is a self-cleaving ribozyme
G49A U100C showed a self-cleavage of 1.96. G49A U108C showed a self-cleavage of 1.54. G49A U112C gave a self-cleavage of 1.45. In the case of G49A U115C, the self-cleavage is reported as 1.33. Work on G49A U119C yielded a self-cleavage of 0.62. G49A U130C gave a self-cleavage of 1.55. For G49C, the self-cleavage was 1.15. For G49C A140G, the self-cleavage was 1.51. Variant G49C U115C has a self-cleavage of 2.02. G49C U130C gave a self-cleavage of 1.67. Variant G49U has a self-cleavage of 0.94. In the case of G49U A78G, the self-cleavage is reported as 0.91. Variant G49U A94U has a self-cleavage of 0.32. Variant G49U A142G has a self-cleavage of 0.85. Variant G49U C95G has a self-cleavage of 0.04. In the case of G49U G127A, the self-cleavage is reported as 0.27. Work on G49U U62C yielded a self-cleavage of 0.08. In the case of G49U U81C, the self-cleavage is reported as 1.54. Variant G49U U109C has a self-cleavage of 0.95. Work on G49U U134A yielded a self-cleavage of 1.19. In the case of G49U U134C, the self-cleavage is reported as 1.63. Variant G49U U143C has a self-cleavage of 0.84. Work on A50C yielded a self-cleavage of 1.34. Variant A50C A64G has a self-cleavage of 0.63. With A50C A64U the self-cleavage was 0.4. In the case of A50C A67G, the self-cleavage is reported as 0.62. Variant A50C A94G has a self-cleavage of 0. Work on A50C A117U yielded a self-cleavage of 0.92. A50C A124G gave a self-cleavage of 1.29. For A50C A136C, the self-cleavage was 2.04. For A50C A142G, the self-cleavage was 1.78. Work on A50C U73G yielded a self-cleavage of 0.79. Work on A50C U85A yielded a self-cleavage of 0.04. For A50C U85C, the self-cleavage was 0.06. For A50C U87C, the self-cleavage was 0.13. Variant A50C U91C has a self-cleavage of 0.48. A50C U109C gave a self-cleavage of 0.97. For A50C U130C, the self-cleavage was 1.51. With A50C U132C the self-cleavage was 1.02. With A50C U143C the self-cleavage was 0.82. Variant A50G has a self-cleavage of 0.9. For A50G A57G, the self-cleavage was 0.32. A50G A57U showed a self-cleavage of 0.14. A50G A59G gave a self-cleavage of 0.26. A50G A59U gave a self-cleavage of 0.84. With A50G A64C the self-cleavage was 0.37. With A50G A64G the self-cleavage was 0.42. A50G A64U showed a self-cleavage of 0.39. Variant A50G A67G has a self-cleavage of 0.37. In the case of A50G A69C, the self-cleavage is reported as 0. With A50G A77G the self-cleavage was 1.42. A50G A77U showed a self-cleavage of 0.73. For A50G A78C, the self-cleavage was 0. A50G A79U showed a self-cleavage of 1.09. A50G A92G showed a self-cleavage of 0.19. With A50G A107G the self-cleavage was 1.1. Work on A50G A117G yielded a self-cleavage of 1.97. A50G A117U gave a self-cleavage of 0.91. Variant A50G A121C has a self-cleavage of 1.23. Variant A50G A124G has a self-cleavage of 0.51. With A50G A124U the self-cleavage was 0.79. Variant A50G A138U has a self-cleavage of 0.95. A50G A140G showed a self-cleavage of 0.94. Work on A50G A140U yielded a self-cleavage of 0.93. With A50G A142C the self-cleavage was 1.07. Variant A50G A142G has a self-cleavage of 0.9. In the case of A50G C61U, the self-cleavage is reported as 0.05. For A50G C63A, the self-cleavage was 0.02. In the case of A50G C90G, the self-cleavage is reported as 0.06. In the case of A50G C95A, the self-cleavage is reported as 0.05. With A50G C95U the self-cleavage was 0.03. For A50G C99U, the self-cleavage was 0.43. With A50G C113A the self-cleavage was 0.35. Variant A50G C118U has a self-cleavage of 0.71. Work on A50G C128U yielded a self-cleavage of 0.36. With A50G C145A the self-cleavage was 1.05. A50G G53A showed a self-cleavage of 1.09. Work on A50G G53U yielded a self-cleavage of 0. With A50G G55A the self-cleavage was 0.15. Variant A50G G60A has a self-cleavage of 0.04. For A50G G74A, the self-cleavage was 0.48. A50G G88A gave a self-cleavage of 0.06. With A50G G89A the self-cleavage was 0.06. A50G G97A gave a self-cleavage of 0.06. With A50G G114A the self-cleavage was 0.98. With A50G G122U the self-cleavage was 1.09. A50G G125A showed a self-cleavage of 0.39. Variant A50G G139U has a self-cleavage of 0.37. Variant A50G U52A has a self-cleavage of 0.91. Variant A50G U62A has a self-cleavage of 0.09. A50G U62C showed a self-cleavage of 0.1. Work on A50G U62G yielded a self-cleavage of 0.1. For A50G U85A, the self-cleavage was 0.05. With A50G U85C the self-cleavage was 0.1. A50G U91C showed a self-cleavage of 0.35. In the case of A50G U96A, the self-cleavage is reported as 0.04. Variant A50G U96C has a self-cleavage of 0.1. A50G U100C gave a self-cleavage of 0.98. With A50G U102G the self-cleavage was 0.51. With A50G U104A the self-cleavage was 0.85. A50G U109A showed a self-cleavage of 0.84. In the case of A50G U109C, the self-cleavage is reported as 0.96. Work on A50G U112A yielded a self-cleavage of 1.02. A50G U115A showed a self-cleavage of 0.95. With A50G U115C the self-cleavage was 1.42. Work on A50G U119C yielded a self-cleavage of 1.11. With A50G U130C the self-cleavage was 1.05. For A50G U132A, the self-cleavage was 1.34. Work on A50G U132G yielded a self-cleavage of 1.15. With A50G U134C the self-cleavage was 0.86. Variant A50G U134G has a self-cleavage of 0.19. A50G U143A showed a self-cleavage of 1.7. A50G U143C gave a self-cleavage of 0.95. Variant A50U has a self-cleavage of 1. A50U A59G gave a self-cleavage of 0.04. With A50U A64G the self-cleavage was 0.16. Work on A50U A65G yielded a self-cleavage of 0.06. In the case of A50U A69U, the self-cleavage is reported as 0.07. A50U A77G gave a self-cleavage of 0.43. A50U A77U gave a self-cleavage of 0.83. A50U A94G gave a self-cleavage of 0.29. A50U A124U showed a self-cleavage of 1.11. Variant A50U A136U has a self-cleavage of 1.21. For A50U A138C, the self-cleavage was 1.21. A50U A138U showed a self-cleavage of 1.16. In the case of A50U A140U, the self-cleavage is reported as 0.92. Work on A50U A141G yielded a self-cleavage of 0.68. Variant A50U C63A has a self-cleavage of 0. Work on A50U C63U yielded a self-cleavage of 0.2. In the case of A50U C66U, the self-cleavage is reported as 0.01. A50U C111U showed a self-cleavage of 0.77. A50U C118U gave a self-cleavage of 1.02. A50U C120A showed a self-cleavage of 1.46. With A50U G54U the self-cleavage was 0.66. A50U G55A gave a self-cleavage of 0.08. A50U G74U showed a self-cleavage of 1.04. Work on A50U G80C yielded a self-cleavage of 0.82. Work on A50U G89A yielded a self-cleavage of 0.02. Work on A50U U52A yielded a self-cleavage of 1.17. With A50U U52C the self-cleavage was 0.89. In the case of A50U U62A, the self-cleavage is reported as 0.01. A50U U73A showed a self-cleavage of 0.89. A50U U85C showed a self-cleavage of 0.14. In the case of A50U U87A, the self-cleavage is reported as 0.1. In the case of A50U U87C, the self-cleavage is reported as 0.23. Variant A50U U96A has a self-cleavage of 0.03. With A50U U96C the self-cleavage was 0.1. For A50U U96G, the self-cleavage was 0.3. Work on A50U U100A yielded a self-cleavage of 0.31. For A50U U100C, the self-cleavage was 0.81. Work on A50U U102A yielded a self-cleavage of 1.63. For A50U U102C, the self-cleavage was 1.17. For A50U U108G, the self-cleavage was 1.11. Variant A50U U112A has a self-cleavage of 1.15. For A50U U119A, the self-cleavage was 0.83. A50U U119C showed a self-cleavage of 1.47. A50U U134A gave a self-cleavage of 0.92. Variant A50U U134C has a self-cleavage of 0.98. With A50U U143A the self-cleavage was 1.47. For C51A, the self-cleavage was 1.31. For C51A A57G, the self-cleavage was 0.48. Variant C51A A67G has a self-cleavage of 0.63. Work on C51A A67U yielded a self-cleavage of 0.1. C51A A107U gave a self-cleavage of 1.3. In the case of C51A A140G, the self-cleavage is reported as 1.04. Variant C51A C111U has a self-cleavage of 1.07. C51A G53A showed a self-cleavage of 1.92.
